Measurements taken from the DeepSol protein solubility set.

Assay: soluble on expression in E. coli; label from the status in PepcDB or PDB records

Sequence | soluble on expression in E. coli
MSLIYQTPDALDLQLDRIPSLPPPRRVVLTTPTHFDVEYVINPHMSENVGAVNTDVAWQQWKALRAAYTALDHTPVLVNGQSGLPDMVFCANQTLPFYDPASDSKGVVLSRMHSEQRADEVPYYARFFEEEGYAVDTLPEDLDADFEGMGDALWHPGHHLLWGGYGYRTSPEAYEALGDLLDVPIVALRLVDPDYYHLDTCLCPLDARHALVAPEAFDDAGRALIDALFETVIEVPDHEARHQFACNAHCPDGAHVLIQEGCEGTNAQLRNHDFVPVELDTSEFMKSGGSVFCMKQMIWEGHHHHHH | soluble
MSLKAAVLKNYGTLPEYQEFPEPKPKNYDELLVTPIASSVKRLDVIRAAGKHYTKFSELPAVMGMDGVAKLDNNSRVYAMGITGMMAEKALIDQRTMTVLPDGLDAGLAAALPNALIGSDLALLERGKIKTGDVVFINGATGLTGSLAVQMAKLRGAKRVIVTGRDPIKLQHLKDLGAYLTITTNQPDNSFVKELINAYNQSPFNLILDYLWGHPAELIIEALRRIRFLNSLKYISIGSLAGEGISVPSQLLRSKDLELIGSGIGSLDPNAVQVYMQKHLTEIFDYANQGKLSMELKSFPLDKISSAWISAPAVITIEGHHHHHH | not soluble
MSLKDICLKVFGDYACFTRPEMKVERVSYDIITPSAARAIFEAILWKPAIRWRVTKIEVLKPIRWISVRRNEVGAVASVRTAQTAMQAGRGDLGLYIEEERQQRAGLFLREVAYRLHARCEPTDRKGEQESPDKFLAMFHRRATNGQCFNQPYLGCREFAAHFEPVTNLDAAMADEPPITETRDLGWMLHDIDFANGIQPKFFRAHMQQGVIRVPEWNSEGVKGEGHHHHHH | soluble
MSLKDLQKYQGIIPAFYACYDDKGDICPERVKALTNYFIDKGVQGLYVNGSSGECIYQSVADRKLVLENVMSVAKGKLTVIAHVACNNTKDSVELAMHAEAIGVDAIAAIPPIYFRLPEYAIADYWNTISQAAPQTDFIIYNIPQLAGVALTSDLYRKMLQNPQVIGVKNSSMPVQDIQNFVAIGGENHIVFNGPDEQFLGGRLMGAAAGIGGTYGVMPELYLTLNQLIVDKDLEKARELQFTINDIITKLCSGHGNMYAVIKAVLEINEQLTIGSVRLPLASVTEEDKPIIKEAAEEGHHHHHH | soluble
MSLKEENYRNQVTEDFEQKKQALPHGDLFTVFSNPDLSVYEQEALMFLYAYMPIGDVTDYSGDYYLENVRLSGQTRTEMPWGDLIPDELFRHFVLPIRVNNENLDDSRRVFYGELKDRVKHLSMKDAILEVNHWCHEKVVYRPSDARTSSPLASVKTAYGRCGEESTFTVAALRSVGIPARQVYTPRWAHTDDNHAWVEAWADGQWYFFGACEPEPVLNLGWFNAPASRGMLMHTKVFGRYTGPEEIMLETPNYTEINVIDNYAPTAKATVTVTDTEGHPVSGAKVEFKIYNYAEFYTVATKYTDAEGKAFLTAGKGDMLVWASRDGKFGYAKLSFGKEDALKLSLDKKVGESYTLPMDIVPPVEGANLPEVTPEQRAENDHRMTQEDSIRNAYVATMMTDEQAKEWVNGLYGNILQPETMKDKLAAFLVASRGNHQTLKDFLSAIRKEKKHISWEEMRGMWLLENISAKDLRDVTLDVLNDHLKNTSDGEKTDTDLVKRALLNPRIANEMLTPYKKILYDAISEAVLKSAPVDAAHDAKALIEWCRKEIKIDNELNSQQIPVSPMGVWKSRVADEKSRDIFFVAAARSIGIPAWIDEVTGKVQYVSDGLSPQDVNFETSQSTQSCTGMLKASYTPIRSLSDPKYYSHFTISKFKNGTFQLLNYDEGDVDMGGGATWSNLLKNGVKLDEGYYMMVTGTRLASGAVLSNTTFFTIEPDKTTTVDLVMRESKDQVQVIGNFNSEATYRPVGGTDLQSILQTCGRGYFVVAVLGVGQEPTNHALRDIAALRSEFEQWGRKMVFLFPSEEQYKKFNTHEFKDLPSTIVYGIDVDNSIQKQIVDAMKLNQSTLPVFIIADTFNRVVFVSQGYTIGLGEQLMKVVHGEGHHHHHH | soluble
MSLKEFDFIKRYLQTGTDNDVVLGIGDDAAIVRPREGFDLCFSADMLLKDRHFFADVKPEDLAWKVLAVNISDMAAMGAIPRWVLLSAALPELDEVWLKRFCGSFFGLAKKFGVTLIGGDTTKGDMAFNVTIIGELPKGRALRRDAAVAGDDIWVSGRIGMAAAALNCRLKRCVLPDEVFAECEQKLLHPEPRVGLGLALLPFARAAQDVSDGLAQDLGHILTASGKGAEIWADSLPSLSVLKDILPRAQWLSYTLAGGDDYELVFTAPESCRSRVFDAAERCGVPVTRIGKINGGCRLKVLDADGRELELHSLGFDHFGEGHHHHHH | soluble
MSLKEISVVLVGIGGYGNKYVEYILREGREKGVRISGVVDPYPQNSRFYDELRSLNVPMYNTLEEFYSHHTADLAIISSPIHYHCEQTCTAVRNGSHVLCEKPAAATVKEVKKMIECREKYGKIVAIGYQWSYNPAVLKLKEDILAGKFGKPVLFKTLVLWPRDTAYYRRNSWAGKLKVNNRWVLDSVAGNATAHFLHNMLFLLGEKMEESAYPESMVAELYRANDIESFDTCALKMTVRKIPVLFFATHAVKERKGPVFEYRFEKARVICNYPEYPESEENLLVVYEDGRKEIYGPTDHGSMRKLWVVVDAARGRKEFICTLESAMAHTIAINGAHVSMKEIQDFPTELKRVEGEPPMIWVEGLKEAMERAYEEEKIFSELNLPWAKRGEEVKLENFEGLEGEITEGHHHHHH | soluble
MSLKEVRYAMIHDESRCNGCNICARACRKTNHVPAQGSRLSIAHIPVTDNDNETQYHFFRQSCQHCEDAPCIDVCPTGASWRDEQGIVRVEKSQCIGCSYCIGACPYLVRYLNPVTKVADKCDFCAESRLAKGFPPICVSACPEHALIFGREDSPEIQAWLQDNKYYQYQLPGTGKPHLYRRFGQHLIKKENEGHHHHHH | not soluble
MSLKFIVKPHPEIFVKSESVRKRFTKILESNIRIIVKARTQGVAVFNRRDHIEVTSNSDTYYAEVLEILTTTPGIQQVLEVQQSSFTDLHNIYEQVLELNRANLENKTFVVRAKRRGKHDFTSIELERYVGGGLNQAIASAKVKLINPDVTVQVEVVDELLNQVIARHKGLGGFPLGTQEDVLSLISGGFDSGVSSYLHIKRGSKVHYCFFNLGGPAHEIGVKQTAYYLWQKYGSSAKVRFIAIDFAPVVAEILEKIDDGQMGVVLKRMFMRTAGMVAEKFGIQALVTGEALGQVSSQTLTNLRHIDNVTDTLILRPLINWDKEDIIRLAREIGTEDFAKTMPEFCGVISKSPTVKAVKEKLEEEEAKFDFALLDQVVYNARQIDIRDIGKEGHHHHHH | soluble
MSLKHSKIRIAHISDIHIGSRLDKLPQKMVNKIIEENPDLVVITGDLIDSHNVISTDLASFNAFKERNIPIYYTIGNHDIMAGEEYVSSILEYYGIIYLKNQVTQITIGDETIQLVGIDDVQSITKYNEIFNSITPSIHNNIYTILLHHRPQGYKTSVQSGQIDLQLAGHTHDGQVFPFNYIVPLFHSKSYGMYHIKDTSKELILYTHPGSCAWGPHFRTAAKNLITIFSIESSNEGHHHHHH | soluble
MSLKIAAFGEVMLRFTPPEYLMLEQTEQLRMNFVGTGVNLLANLAHFQLETALITKLPANRLGEAGKAALRKLGISDQWVGEKGDHIGSFFAEMGYGIRPTQVTYQNRHQSAFGISEAKDYDFEAFLAEVDMVHICGISLSLTEKTRDAALILAQKAHAYQKKVCFDFNYRPSLNTANSALFMRQQYERILPYCDIVFGSRRDLVELLGFIPREDLEGEAQETELIQRFMSQYNLEWFAGTTRSHSQNQNYLSGYLYTQNEYQQSEKRPLLNLDRIGAGDAYAAGILYGYSQNWSLEKAVTFATVNGVLAHTIQGDIPLTTVKQVNHVLEHPNIDLIREGHHHHHH | soluble
MSLKIAVTGGTGFLGQYVVESIKNDGNTPIILTRSIGNKAINDYEYRVSDYTLEDLINQLNDVDAVVHLAATRGSQGKISEFHDNEILTQNLYDACYENNISNIVYASTISAYSDETSLPWNEKELPLPDLMYGVSKLACEHIGNIYSRKKGLCIKNLRFAHLYGFNEKNNYMINRFFRQAFHGEQLTLHANSVAKREFLYAKDAAKSVIYALKQEKVSGTFNIGSGDALTNYEVANTINNAFGNKDNLLVKNPNANEGIHSSYMDSSKAKELLDFSTDYNFATAVEEIHLLMRGLDDVPLWYEGHHHHHH | soluble
MSLKIAVVQFPGSNCERETMLAVQRAGMTPVEFLWNDSSQKLREMDGYIIIGGFSYEDRSRAGIIAALDPVMKEIKLQSELGKPVLGICNGAQILVETGLVPGLKNYQIGMALTENKRIQDGKILGTGFYNSWIHMRTGDRVRQNAFTRYLSKDSVLSIPAAHAEGRFVMPVKLLQEIEEEGLNAFQYCDAQGNRDDNFPVNPNGSLRNIAAIINKAGNVMAIMPHPERTFAGDPIFHSMKEYIKEKKTFKQQTLSYQPEPVKIIPYDKKDNAHELIVKLIITDNAALTVQNTLRQLGIPVTVNRMMYWHVDTNFPETIEKIKQTGVLYNDRKEYLVTSEHIFSSAAKAFLVKSKDDMIGQQKLQMLRDHFSIDGVDAIHHGVLWMFSSENVKIQELAESILATNIIFNPNAHICYEYQCPEGHHHHHH | soluble
MSLKILVLGIGNILFGDEGIGVHLSNLLKVNYRFEGPHQVDVIDGGTLAQLLIPLITSYDYVIVIDCVDAGGGKIGEVYFFDFDNVPNVITWQGSAHEVEMLQTLRMTEVNGDLPPVKIVGVIPSIIGSETAFDLSKEVAEASVTMEKIVLNHLQELGVEITRIDSKTIDEIAPLSYKGEGHHHHHH | soluble
MSLKIRLPEMIDYFRKENGWTMKEFGEKLGKSESAISKWIKGVRSPMVEDFDKMVNLFNTDPDTLMYGASDLSTTLSEINKISSQLEEPRQKVVLNTATNQLDEQNQEKKKESKVIPINKIPDDLPPYISRKILENFVMPTNTMEYEPDEDMVDVPILGRIAAGLPLDAVENFDGTRPVPAHFLSSARDYYWLMVDGHSMEPKIPFGSYVLIEAVPDVTDGTIGAVLFQDDCQATLKKVYHEIDCLRLVSINKEFKDQFATQDNPAAVIGQAVKVEIDLEGHHHHHH | soluble
MSLKIVIIGASFAGISAAIASRKKYPQAEISLIDKQATVGYLSGGLSAYFNHTINELHEARYITEEELRRQKIQLLLNREVVAMDVENQLIAWTRKEEQQWYSYDKLILATGASQFSTQIRGSQTEKLLKYKFLSGALAAVPLLENSQTVAVIGAGPIGMEAIDFLVKMKKTVHVFESLENLLPKYFDKEMVAEVQKSLEKQAVIFHFEETVLGIEETANGIVLETSEQEISCDSGIFALNLHPQLAYLDKKIQRNLDQTIAVDAYLQTSVPNVFAIGDCISVMNEPVAETFYAPLVNNAVRTGLVVANNLEEKTHRFIGSLRTMGTKVGDYYLASTGLTETEGLFFPQTLASIIVRQPAPPLQHGTEILGKLIYDKVTQRVLGAQLCSKNNCLEKINTLALSIQTGQTLTDLLQKDYFYQPSLTNIYDITNLMGASAYWRENDEGHHHHHH | soluble
MSLKIVLTGSIGRINQTLVPKLTHAGHEVTVISHQATRSSLIKVFRATPAIGRLDDEAFLTKTFMGADVVYLMVTGIAASDDLYTAAKRQADIYAAAIKAAGVKRVVNLSSVGADLGPEVGALYMYHIIEQTLTTALPDVDLTFIRPTAMYYNLLSSVPTVKKSHRIYTNANLAVKNVWVAPVDVTTVLIKALTEPTPGQTVTYVASDEKTYLEVASALSQALKMPDLRVSQVPDEVMQDHLVTAGTPVAFAREYVKTVAYQRDHDFYADYRAHQPRLGDVKLADFAEGHHHHHH | not soluble
MSLKKIDGHAHIVDTIAGFNGKGRLNALGNGYAIWDDGDLIKLIPDEYGDKAFTAEAFLKYMDANGVDKAVILQGHLNGYQNYYTHLAIKRYPERFTGAFSVDPFADNAMQIVKRHVEVLGFRAIKFEISQGGGIHGYRGQKTPFRLDTDPHVSRILTYLLDYPGFVVTVDYGNWDQISHQPDAIANLARLYTSLDFVVCHLSFPHVEHSNRLRAELNMWKNFNNIYTDISAIQDIDAPDSFPFPKSEQNVRIAKEVLGAKRIIWGTDSPWSATFNTYEELATWLENVDIFSQEELEDVMYNNAERVYFKEEHVKANRAGIDDTTKELNLYEGHHHHHH | soluble
